The values below come from patent US20210269480A1 (published 2021).

For experiment [1], the target named is Nectin-4 on the surface of tumour cell lines (UniProt Q96NY8). In words: flow cytometry, PE isotype control on NCI-H358 cells. In general terms: In flow cytometry, cells or beads pass a laser one at a time.
For experiment [2] the target is unchanged. Kind of experiment: flow cytometry, PE isotype control on T-47D cells.
Experiment [3] has the same target. Kind of experiment: flow cytometry, PE isotype control on HT1376 cells.
For experiment [4] the target is unchanged. In words: flow cytometry, PE isotype control on NCI-H292 cells.
Experiment [5] shares this target. In words: flow cytometry, PE isotype control on Panc02.13 cells.
For experiment [6] the target is unchanged. Kind of experiment: flow cytometry, PE isotype control on NCI-526 cells.
The target is the same in experiment [7]. In words: flow cytometry, PE isotype control on MDA-MB-468 cells.
Experiment [8] shares this target. The experiment is described as above. The source holds these as a separate data set.
The target is the same in experiment [9]. In words: flow cytometry, PE isotype control on A549 cells.
Experiment [10] shares this target. In words: flow cytometry, PE isotype control on HT1080 cells.
Experiment [11] shares this target. In words: flow cytometry, PE isotype control on NCI-H526 cells.
The target is the same in experiment [12]. In words: flow cytometry, PE isotype control on NCI-H292 cells. This is another data set of the same source.
For experiment [13] the target is unchanged. Kind of experiment: flow cytometry, PE isotype control on HT-29 cells.
For experiment [14] the target is unchanged. In words: flow cytometry, PE isotype control on NCI-H322 cells.
Experiment [15] shares this target. Kind of experiment: flow cytometry, PE isotype control on HCT-116 cells.
Experiment [16] shares this target. Kind of experiment: flow cytometry, PE antibody staining of NCI-H322 cells.
Experiment [17] has the same target. Kind of experiment: flow cytometry, PE antibody staining of NCI-H292 cells.
The target is the same in experiment [18]. In words: flow cytometry, PE antibody staining of HT1080 cells.
The target is the same in experiment [19]. Kind of experiment: flow cytometry, PE antibody staining of HCT-116 cells.
Experiment [20] shares this target. In words: flow cytometry, PE antibody staining of NCI-H292 cells. The source holds these as a separate data set.
Experiment [21] has the same target. Kind of experiment: flow cytometry, PE antibody staining of Panc02.13 cells.
The target is the same in experiment [22]. In words: flow cytometry, PE antibody staining of MDA-MB-468 cells.
The target is the same in experiment [23]. Kind of experiment: flow cytometry, PE antibody staining of T-47D cells.
Experiment [24] has the same target. Kind of experiment: flow cytometry, PE antibody staining of NCI-526 cells.
The target is the same in experiment [25]. In words: flow cytometry, PE antibody staining of MDA-MB-468 cells. This is another data set of the same source.
Experiment [26] shares this target. In words: flow cytometry, PE antibody staining of A549 cells.
Experiment [27] has the same target. In words: flow cytometry, PE antibody staining of NCI-H358 cells.
For experiment [28] the target is unchanged. In words: flow cytometry, PE antibody staining of NCI-H526 cells.
The target is the same in experiment [29]. In words: flow cytometry, PE antibody staining of HT-29 cells.
Experiment [30] has the same target. In words: flow cytometry, PE antibody staining of HT1376 cells.
Experiment [31] has as its target T1, human Nectin-4 (human), Q96NY8.
T1 chain: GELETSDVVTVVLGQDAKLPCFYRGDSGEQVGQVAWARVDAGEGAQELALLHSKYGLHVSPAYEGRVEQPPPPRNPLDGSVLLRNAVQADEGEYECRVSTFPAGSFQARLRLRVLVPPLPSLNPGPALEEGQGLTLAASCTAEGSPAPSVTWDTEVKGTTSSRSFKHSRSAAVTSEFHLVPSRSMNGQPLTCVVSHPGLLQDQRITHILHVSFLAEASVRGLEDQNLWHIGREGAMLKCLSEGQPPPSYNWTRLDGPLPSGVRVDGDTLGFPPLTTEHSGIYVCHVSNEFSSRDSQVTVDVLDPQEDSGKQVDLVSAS
In words: FP competition, tracer SEQ ID NO 217. The conditions noted are these: remark: other sources report otherwise.

Experiment [32] concerns the target Human Nectin-4 (residues Gly32-Ser349) with C-terminal FLAG tag, biotinylated (human) (UniProt Q96NY8). In words: SPR (Biacore), biotinylated human Nectin-4 on streptavidin chip. (Surface plasmon resonance follows binding to a sensor surface in real time, without labels.)
The target of experiment [33] is T2, human Nectin-4 (human, UniProt Q96NY8 32-349).
T2 construct: a Gly32-Ser349 FLAG construct is described only under the SPR assay; also called PVRL4
T2 sequence (looked up): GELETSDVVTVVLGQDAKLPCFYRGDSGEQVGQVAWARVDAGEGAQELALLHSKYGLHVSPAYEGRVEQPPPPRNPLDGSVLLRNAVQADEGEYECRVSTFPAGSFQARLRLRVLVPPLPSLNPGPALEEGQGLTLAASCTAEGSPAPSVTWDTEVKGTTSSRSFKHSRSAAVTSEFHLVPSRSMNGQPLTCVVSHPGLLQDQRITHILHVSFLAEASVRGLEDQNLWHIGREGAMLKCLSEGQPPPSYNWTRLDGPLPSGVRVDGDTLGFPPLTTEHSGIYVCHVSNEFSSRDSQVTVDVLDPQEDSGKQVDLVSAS
Kind of experiment: FP competition, tracer SEQ ID NO 217. Here is the method: Peptides were diluted to an appropriate concentration in assay buffer as described in the direct binding assay with a maximum of 5% DMSO, then serially diluted 1 in 2. […] Measurements were conducted as for the direct binding assay, however the gain was determined prior to the first measurement. Data analysis was in Systat Sigmaplot version 12.0 where the mP values were fit to a user defined cubic equation to generate a Ki value: […]

In experiment [34] the target is T3, Nectin-4 on MDA-MB-468 cells (human, UniProt Q96NY8 32-510).
T3 construct: whole, on cells; also called PVRL4; PVRL-4
T3 sequence (looked up): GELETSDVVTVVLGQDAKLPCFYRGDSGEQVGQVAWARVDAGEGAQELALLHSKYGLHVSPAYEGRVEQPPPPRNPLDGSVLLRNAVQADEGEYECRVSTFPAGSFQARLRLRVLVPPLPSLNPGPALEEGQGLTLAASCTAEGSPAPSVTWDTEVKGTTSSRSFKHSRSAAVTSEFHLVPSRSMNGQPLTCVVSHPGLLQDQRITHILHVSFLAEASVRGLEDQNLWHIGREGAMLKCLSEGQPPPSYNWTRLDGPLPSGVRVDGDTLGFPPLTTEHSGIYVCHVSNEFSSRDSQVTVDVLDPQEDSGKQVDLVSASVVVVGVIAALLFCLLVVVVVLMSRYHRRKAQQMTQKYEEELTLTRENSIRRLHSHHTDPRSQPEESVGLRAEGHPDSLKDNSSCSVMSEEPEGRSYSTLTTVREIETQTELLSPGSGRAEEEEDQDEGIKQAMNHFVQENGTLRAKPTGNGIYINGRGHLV
Kind of experiment: column 'Historical Kd (nM)' of the HCS table; method of the historical value not stated.

The target of experiment [35] is T3, Nectin-4 on MDA-MB-468 cells. In words: HCS assay on MDA-MB-468 cells, bound agent detected with fluorescent antibody to MMAE. Here is the method:
HCS assay was used in Nectin-4 BDC binding study. Cells were incubated with test agent and then washed. Detection was by a fluorescent antibody to MMAE.

The target of experiment [36] is T2, human Nectin-4. In words: FP direct binding. The protocol: Affinity of the peptides of the invention for human Nectin-4 (Ki) was determined using a fluorescence polarisation assay, in accordance with the methods disclosed in WO 2016/067035. […] Measurements were conducted on a BMG PHERAstar FS equipped with an “FP 485 520 520” optic module which excites at 485 nm and detects parallel and perpendicular emission at 520 nm. The PHERAstar FS was set at 25° C. with 200 flashes per well and a positioning delay of 0.1 second, with each well measured at 5 to 10 minute intervals for 60 minutes. […] Data was analysed using Systat Sigmaplot version 12.0. mP values were fit to a user defined quadratic equation to generate a Kd value: f=ymin+(ymax−ymin)/Lig*((x+Lig+Kd)/2-sqrt((((x+Lig+Kd)/2)\hat{ }2)-(Lig*x))).

*1 amine or outer side, *2 acyl side, *3 side chain or, on linkers, in order; H or OH if unused. Bridges are numbered along the chain shown (N, C = ends). Primed or numbered codes have the meaning given here. Where no end group is shown, it is not given here. [ ]: non-standard residue; d: D form. TATA = O=C(CC[*:1])N1CN(C(=O)CC[*:2])CN(C(=O)CC[*:3])C1; 1Nal = N[C@@H](Cc1cccc2ccccc12)C(=O)O; Glutaryl = O=C(CCCC(=O)[*:2])[*:1]; K(Fl) = lysine bearing fluorescein; Cya = N[C@@H](CS(=O)(=O)O)C(=O)O; Hyp = O=C(O)[C@@H]1C[C@@H](O)CN1; hArg = N=C(N)NCCCC[C@H](N)C(=O)O; Cit = NC(=O)NCCC[C@H](N)C(=O)O; MMAE = monomethyl auristatin E; PABC′ = p-aminobenzylcarbamate; βAla = NCCC(=O)O; Sar = CNCC(=O)O

For “PE isotype control IgG2b (R&D, catalog IC0041P) (antibody)”, the MFI-Isotype in [1] turned out to be 26.5; in experiment [2], 132; in experiment [3], 36.2; in experiment [4], 22.9; in experiment [5] it was 36.2; in experiment [6] it was 8.33. The MFI-Isotype in experiment [7] was 184; in experiment [8], 28.9; in experiment [9], 20.5; in experiment [10], 134; in [11], 104; in [12], 180. Further, the MFI-Isotype in [13] came out at 20.5; in [14], 145; in experiment [15], 14.5.

Turning to “PE anti-Nectin-4 antibody (R&D, catalog FAB2659P)”, the MFI-Panel in experiment [16] was 1660; in experiment [17], 149; in experiment [18] it was 134; in experiment [19], 15.6; in [20], 729; in [21], 128. Further, the MFI-Panel in experiment [22] is 2320; in experiment [23] it was 1810; in experiment [24], 12.1; in experiment [25], 460; in experiment [26] it was 21.6; in experiment [27], 361. For the same molecule, the MFI-Panel in experiment [28] turned out to be 91.3; in experiment [29] it was 88.3; in experiment [30] it was 803. In addition, the Nectin-4 (percent positive cells) was 99.1% in experiment [16]; 71.1% in [17]; 1.53% in experiment [18]; 1.85% in experiment [19]; 97.9% in [20]; 51.9% in [21]. For the same molecule, the Nectin-4 (percent positive cells) in experiment [22] stood at 99%; in [23] it was 99%; in experiment [24] it was 1.22%; in [25] it was 97.1%; in experiment [26], 1.07%; in experiment [27], 90.1%. Further, the Nectin-4 (percent positive cells) in experiment [28] was 0.21%; in [29], 40%; in experiment [30] it was 92.4%.

Take ACPFGCMKNWAWPIWCTNK (linker 2-6-16 via TATA) [BCY7424]: the inhibition constant Ki in experiment [31] was 562 nM.

Ac-CP[1Nal][dD]CM[hArg][Cya]WSTP[Hyp]WC (linker 1-5-15 via TATA (inferred)) [BCY8161] registered an equilibrium dissociation constant (Kd) in experiment [32] of 0.94 nM. Moreover, the Ki in the experiment with human Nectin-4 [33] worked out at 4 nM.

With {MMAE-PABC′-Cit-Val-Glutaryl-βAla}-[Sar][Sar][Sar][Sar][Sar][Sar][Sar][Sar][Sar][Sar]CP[1Nal][dD]CM[hArg]DWSTP[Hyp]WC (linker 11-15-25 via TATA, also called BT8009) [BCY8245 (MMAE-PABC-Cit-Val-Glutaryl-BCY8234)], the Kd in experiment [34] amounted to 5.18 nM; in experiment [35], 3.52 nM.

In the case of ACPFGCHTDWSWPIWCA[Sar][Sar][Sar][Sar][Sar][Sar]-{K(Fl)} (linker 2-6-16 via TATA, also called fluorescent peptide; tracer) [ACPFGCHTDWSWPIWCA-Sar6-K(Fl) (SEQ ID NO: 217)], in the experiment with human Nectin-4 [36], binding was put at a Kd of 5 nM.

As a reminder, the Ki is the equilibrium dissociation constant of an inhibitor or competing ligand from its target. Low readings indicate higher affinity, high ones lower affinity. As usually defined, the Kd is the concentration at which binding is half-saturated. Read a high Kd as a looser complex.
